Consider 2 substances from patent US20160215027A1.

For experiment [1], the target named is human IgG (human). In words: human IgG binding to commercial gel support (epoxy-activated crosslinked agarose); elution, A280.
Experiment [2] addresses human IgG (human). In words: human IgG binding to commercial gel support (ligand at 6 mg/mL gel on epoxy-activated crosslinked agarose); elution, A280.

“tetramer of four linked Z domains of protein A with the introduced C-terminal cysteine residue (ligand of MabSelect SuRe, GE Healthcare Science) (designed binder)” had a Human IgG binding amount in the experiment with human IgG (human) [1] of 45.5 mg/mL gel.

For “native sequence protein A with the introduced C-terminal cysteine (ligand of rProtein A-Sepharose FF, GE Healthcare Science) (from UniProt P38507 37-327)”, in the experiment with human IgG (human) [2], the Human IgG binding amount was determined as 50.1 mg/mL gel.
